T1: IL-17 (Homo sapiens, UniProt Q16552 Q16552:24-155)
T1 sequence: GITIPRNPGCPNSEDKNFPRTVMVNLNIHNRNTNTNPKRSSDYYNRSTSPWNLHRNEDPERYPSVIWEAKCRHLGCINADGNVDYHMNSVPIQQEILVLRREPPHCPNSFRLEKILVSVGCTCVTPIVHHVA

T2: IL-17 (IL-17A) (Homo sapiens, UniProt Q16552 Q16552:24-155)
T2 sequence: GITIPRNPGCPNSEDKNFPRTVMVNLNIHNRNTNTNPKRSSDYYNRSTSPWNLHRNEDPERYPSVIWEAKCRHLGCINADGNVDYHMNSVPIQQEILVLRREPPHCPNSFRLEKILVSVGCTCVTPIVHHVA


What was measured:
Details in all cases: chain copies: 2
[1] = target: T1, IL-17; assay: cell_activity; NIH3T3 IL-6 release
Description: First, human IL-17 and the aptamer produced in Example 1-1 were pre-incubated at 37° C. for 30 min, and added to NIH3T3 cell (ATCC, CRL1658) together with mouse TNFα (2 ng/mL). Then, after incubation for 24 hr, the culture supernatant was collected, and the amount of IL-6 was measured by BD Cytometric Bead Array (BD Biosciences). The IL-17 inhibitory action of each aptamer was determined from the amount of IL-6. For comparison with the aptamer of the present invention, a conventionally-known aptamer (aptamer No. 50) against IL-17 was used.

[2] = target: T1, IL-17; assay: SPR; IL-17R-Fc on chip
Description: Whether aptamers shown by aptamer Nos. 1-49 inhibit the binding of IL-17 and IL-17 receptor was evaluated by the surface plasmon resonance method.
For the measurement, BIAcore2000 manufactured by BIAcore was used. […] As an analyte, IL-17 (100 or 150 nM) and an aptamer (50 or 100 nM) shown by aptamer No. 1-49 were mixed, maintained for 15 min and after that the mixture was flown.

[3] = target: T2, IL-17 (IL-17A); assay: cell_activity; IL-6 release, NIH3T3
Description: First, human IL-17 and the aptamer produced in Example 1-2 were pre-incubated at 37° C. for 30 min, and added to NIH3T3 cell (ATCC, CRL1658) together with mouse TNFα (2 ng/mL). Then, after incubation for 24 hr, the culture supernatant was collected, and the production amount of IL-6 was measured by ELISA method described below. The IL-17 inhibitory action of each aptamer was determined from the production amount of IL-6. For comparison with the aptamer of the present invention, a conventionally-known aptamer (aptamer No. 50) against IL-17 was used.
ELISA method for verifying IL-17 inhibitory action of aptamer: A microtiter plate for ELISA was coated with rat anti-mouse IL-6 antibody (BD Biosciences, 2 μg/mL; 100 μL/well) diluted with PBS, and incubated at 4° C. overnight. The next day, the microtiter plate was washed 3 times with PBS/0.05% Tween 20, and applied blocking with PBS/1% BSA (200 μL/well) at room temperature for 2 hr. Then, the plate was washed 3 times with PBS/0.05% Tween 20. Recombinant mouse IL-6 (BD Biosciences; 100 μL/well) serially diluted with PBS/1% BSA/0.05% Tween 20 or culture supernatants (100 μL/well) were added to the plate. After incubation at room temperature for 2 hr, the plate was washed 3 times with PBS/0.05% Tween 20. Then, 100 μL/well of biotin conjugated rat anti-mouse IL-6 antibody (BD Biosciences) was added to the plate at final dilution of 1/500, and the mixture was reacted at room temperature for 1 hr. After washing 3 times with PBS/0.05% Tween 20, 100 μL/well of alkaline phosphatase conjugated streptavidin was added at final dilution of 1/1000. After 30 min at room temperature, the plate was again washed 4 times with PBS/0.05% Tween 20, and a substrate (1-Step PNPP; Thermo Fisher Scientific Inc; 100 μL/well) was added. After 15 min, aqueous sodium hydroxide solution (2N: 50 μL/well) was added to stop the reaction, and the plate was read on a microtiter reader (Bio-Rad) by using a 405 nm filter.

Row | Binder | IC50 [1] [nM] | binding signal [2] | IC50 [3] [nM]
1 | GGGUAGCCGGAGGAGTCAGTAAUCGGUACCC (mixed, 2'-OMe (M), 2'-F (F) as marked; uppercase DNA [1,2,3,4,7,8,10,11,13,14,17,18,21,22,23,24,25,26,27,28]) [aptamer No. 12] | 0.52 | 24.4 % IL-17/IL-17R binding remaining | 
2 | GGGUAGCCGGAGGAGTCAGTAAUCGGUACCC (mixed, g(M)g(M)g(M)u(M)a(M)g(S)c(M)c(M)Gg(M)a(M)gg(M)a(M)g(S)Tc(F)a(F)g(S)Ta(M)a(M)u(M)c(M)g(M)g(M)u(M)a(M)c(M)c(M)c(M)) [aptamer No. 82] |  |  | 0.48
3 | GGGUAGCCGGAGGAGTCAGTAAUCGGUACCC (mixed, g(M)g(M)g(M)u(M)a(M)g(S)c(M)c(M)Gg(M)a(F)gg(M)a(M)gTc(F)a(F)gTa(M)a(M)u(M)c(M)g(M)g(M)u(F)a(M)c(M)c(M)c(M)) [aptamer No. 62] |  |  | 0.69
4 | GGGUAGCCGGAGGAGTCAGTGAUCGGUACCC (mixed, g(M)g(M)g(M)u(M)a(M)g(S)c(M)c(M)Gg(M)a(M)gg(M)a(M)g(S)Tc(M)a(F)g(S)Tga(M)u(M)c(M)g(M)g(M)u(M)a(M)c(M)c(M)c(M)) [aptamer No. 87] |  |  | 3.23
5 | GGGUAGCCGGAGGAGUCAGUAAUCGGUACCC (mixed, g(M)g(M)g(M)u(M)a(M)gc(M)c(M)gg(M)a(F)gg(M)a(M)gu(F)c(F)a(F)gu(F)a(M)a(M)u(M)c(M)g(M)g(M)u(F)Ac(M)c(M)c(M)) [aptamer No. 77] |  |  | 4.66
6 | GGGUAGCCGGAGGAGTCAGTAAUCGGUACCC (mixed, g(M)g(M)g(M)u(M)a(M)gc(M)c(M)gg(M)a(F)gg(M)a(M)gTc(F)a(F)gTa(M)a(M)u(M)c(M)g(M)g(M)u(F)a(M)c(M)c(M)c(M)) [aptamer No. 75] |  |  | 1.33
7 | GGGUAGCCGGAGGAGUCAGUAAUCGGUACCC (mixed, g(M)g(M)g(M)u(M)a(M)g(S)c(M)c(M)Gg(M)a(M)gg(M)a(M)g(S)u(F)c(F)a(F)g(S)u(F)a(M)au(M)c(M)g(M)g(M)u(F)a(M)c(M)c(M)c(M)) [aptamer No. 93] |  |  | 0.22
8 | GGGUAGCCGGAGGAGTCAGTAAUCGGUACCC (mixed, 2'-OMe (M), 2'-F (F), PS (S) as marked; uppercase DNA [1,2,3,4,6,7,8,10,11,13,14,17,18,21,22,23,24,25,26,27,28]) [aptamer No. 9] | 0.64 | 8.94 % IL-17/IL-17R binding remaining | 
9 | GGGUAGCCGGAGGAGUCAGUAAUCGGUACCC (mixed, g(M)g(M)g(M)u(M)a(M)g(S)c(M)c(M)Gg(M)a(F)gg(M)a(M)g(S)u(F)c(F)a(F)g(S)u(F)a(M)a(M)u(M)c(M)g(M)g(M)u(F)a(M)c(M)c(M)c(M)) [aptamer No. 70] |  |  | 3.28
10 | GGGUAGCCGGAGGAGUCAGUAAUCGGUACCC (mixed, g(M)g(M)g(M)u(M)a(M)g(S)c(M)c(M)Gg(M)a(F)gg(M)a(M)g(S)u(F)c(F)a(F)g(S)u(F)a(M)a(M)u(M)c(M)g(M)g(M)u(M)a(M)c(M)c(M)c(M)) [aptamer No. 73] |  |  | 3.46
11 | GGGUAGCCGGAGGAGTCAGTAAUCGGUACCC (mixed, 2'-OMe (M), 2'-F (F), PS (S) as marked; uppercase DNA [1,2,3,4,6,7,8,10,11,13,14,17,18,21,23,24,25,26,27,28]) [aptamer No. 11] | 0.34 | 16.8 % IL-17/IL-17R binding remaining | 
12 | GGGUAGCCGGAGGAGUCAGUAAUCGGUACCC (mixed, g(M)g(M)g(M)u(M)a(M)g(S)c(M)c(M)Gg(M)a(F)gg(M)a(M)gu(F)c(F)a(F)gu(F)a(M)a(M)u(M)c(M)g(M)g(M)u(M)a(M)c(M)c(M)c(M)) [aptamer No. 72] |  |  | 2.24
13 | GGGUAGCCGGAGGAGUCAGUAAUCGGUACCC (mixed, g(M)g(M)g(M)u(M)a(M)g(S)c(M)c(M)Gg(M)a(M)gg(M)a(M)g(S)u(F)c(F)a(F)g(S)u(F)a(M)a(M)u(M)c(M)g(M)g(M)u(M)a(M)c(M)c(M)c(M)) [aptamer No. 84] |  |  | 1.04
14 | GGGUAGCCGGAGGAGUCAGUAAUCGGUACCC (mixed, 2'-OMe (M), 2'-F (F), PS (S) as marked; uppercase DNA [1,2,3,4,6,7,8,10,11,13,14,16,17,18,20,23,24,25,26,27,28]) [aptamer No. 7] | 0.3 | 18.4 % IL-17/IL-17R binding remaining | 
15 | GGGUAGCCGGAGGAGTCAGTAAUCGGUACCC (mixed, g(M)g(M)g(M)u(M)a(M)g(S)c(M)c(M)Gg(M)a(M)gg(M)a(M)g(S)Tc(M)a(F)g(S)Ta(M)au(M)c(M)g(M)g(M)u(M)a(M)c(M)c(M)c(M)) [aptamer No. 90] |  |  | 1.08
16 | GGGUAGCCGGAGGAGTCAGTAAUCGGUACCC (mixed, g(M)g(M)g(M)u(M)a(M)g(S)c(M)c(M)Gg(M)a(F)gg(M)a(M)g(S)Tc(F)a(F)g(S)Ta(M)a(M)u(M)c(M)g(M)g(M)u(M)a(M)c(M)c(M)c(M)) [aptamer No. 66] |  |  | 1.21
17 | GGGUAGCCGGAGGAGTCAGTAAUCGGUACCC (mixed, g(M)g(M)g(M)u(M)a(M)gc(M)c(M)Gg(M)a(F)gg(M)a(M)gTc(F)a(F)gTa(M)a(M)u(M)c(M)g(M)g(M)u(M)a(M)c(M)c(M)c(M)) [aptamer No. 78] |  |  | 1.36
18 | GGGUAGCCGGAGGAGTCAGTAAUCGGUACCC (mixed, 2'-OMe (M), 2'-F (F), PS (S) as marked; uppercase DNA; (NI) printed, likely (M) [1,2,3,4,5,6,7,8,10,13,14,17,18,21,22,23,24,25,26,27]) [aptamer No. 6] | 0.77 | 25.3 % IL-17/IL-17R binding remaining | 
19 | GGGUAGCCGGAGGAGUCAGUAAUCGGUACCC (mixed, g(M)g(M)g(M)u(M)a(M)g(S)c(M)c(M)Gg(M)a(F)gg(M)a(M)gu(F)c(F)a(F)gu(F)a(M)a(M)u(M)c(M)g(M)g(M)u(F)a(M)c(M)c(M)c(M)) [aptamer No. 69] |  |  | 1.73
20 | GGGUAGCCGGAGGAGTCAGTAAUCGGUACCC (mixed, g(M)g(M)g(M)u(M)a(M)g(S)c(M)c(M)Gg(M)a(M)gg(M)a(M)g(S)Tc(M)a(F)g(S)Ta(M)a(M)u(M)c(M)g(M)g(M)u(M)a(M)c(M)c(M)c(M)) [aptamer No. 81] |  |  | 2.26
21 | GGGUAGCCGGAGGAGTCAGTAAUCGGUACCC (mixed, g(M)g(M)g(M)u(M)a(M)g(S)c(M)c(M)Gg(M)a(F)gg(M)a(M)g(S)Tc(F)a(F)g(M)Ta(M)a(M)u(M)c(M)g(M)g(M)u(F)a(M)c(M)c(M)c(M)) [aptamer No. 60] |  |  | 2.35
22 | GGGUAGCCGGAGGAGTCAGTAAUCGGUACCC (mixed, g(M)g(M)g(M)u(M)a(M)g(S)c(M)c(M)Gg(M)a(M)gg(M)a(M)g(S)Tc(M)a(F)g(S)Taa(M)u(M)c(M)g(M)g(M)u(M)a(M)c(M)c(M)c(M)) [aptamer No. 89] |  |  | 6.21
23 | GGGGUAGCCGGAGGAGTCAGTAAUCGGUACCCC (mixed, 2'-OMe (M), 2'-F (F), PS (S) as marked; uppercase DNA [2'-OMe: 1-5,8,9,11,14,15,22-27,29; 2'-F: 12,18,19,28; PS: 7]) [aptamer No. 16] | 0.25 | 27.9 % IL-17/IL-17R binding remaining | 

Reference: patent US20160046944, “APTAMER TO IL-17 AND USE THEREOF” (THE UNIVERSITY OF TOKYO, published 2016)
